System: MS2 coat protein
Assay: apparent KD of MS2 coat protein; designed switch direction (-1 OFF switch, 1 ON switch): -1; higher = weaker reporter binding
Procedure, shortened: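 Stalled E. coli RNA polymerase transcribed designed RNA switches on Illumina chips, which were then titrated with SNAP-549-labelled MS2 coat protein, doubling from 0.7 or 1.5 nM to 3 µM. Steps lasted from 0.8–1.5 h at the lowest concentration to 10–20 min at the highest. The apparent KD is each design's median over clusters of curve-fitted normalised fluorescence.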

[1] = Eterna round: R95, input ligand: microRNA oligo, concentration not stated
[2] = Eterna round: R95, input ligand: FMN 200 uM
[3] = Eterna round: R95, input ligand: none
[4] = input ligand: microRNA oligo, concentration not stated

Row | Sequence | apparent KD of MS2 coat protein (input ligand: FMN 200 uM) [nM] | apparent KD of MS2 coat protein (input ligand: none) [nM] | apparent KD of MS2 coat protein [1] [nM] | also measured
1 | GGGUGACAUGAGGAUCACCCAUGUCAGGAUAUGCUUCGGCUUCGGAAAUGAAGUUGAAGUAGAAGGGACUGCCC [-30.1, -29.1 kcal, A 27% sequence 3 bis] (Eterna round: R97, puzzle: Exclusion 1) | 84.4 | 42.2 | – | –
2 | UUAUAUAGUGUGAGGAUAUGCUGGUCCUUGGAUCAGCAGAAGGCACAUGAGGAUCACCCAUGUAGUUUAUUAUU [Mat - Exclusion 4 - JL Mod - D10] (puzzle: Brourd's mod of Exclusion 4) | – | – | 24.8 | –
3 | GGUUGGCGAGGAUAUACAUGAGGAUCACCCAUGUGAGAGAAAAAAGUGAGGAAGAAAAGUAGAAGGCGCUGACC [salish99_ex3_r3_048] (puzzle: Exclusion 3) | – | – | 44.6 | apparent KD of MS2 coat protein [2]: 256 nM; apparent KD of MS2 coat protein [3]: 53.9 nM
4 | CCGGAAUUGCAGGAUAUAGGAGUCGAUAGACACCUAGAAGGGCAGACAUGAGGAUCACCCAUGUGUCCUACCGG [Fiskers Ex 6 - 84] (puzzle: Exclusion 6) | – | – | 17.4 | –
5 | AUUCUUCAUAUCACAUGAGGAUCACCCAUGUUAUUCAUCGCGUAGGAUAUCGAGAAUUUUAAAUACGAGAAGGACGAAUUGAUA [JR_ExcNG3_Sub071] (Eterna round: R96, puzzle: Exclusion NG 3) | 35.1 | 35.3 | – | apparent KD of MS2 coat protein [4]: 31.8 nM
6 | AAAACGUGAGGAUAUACUGUGAGAUCUCAAGGUACGUUAAGACAUGAGGAUCACCCAUGUAGAAGGCGCCAAAA [Eternabot (Original) Solution 15] (Eterna round: R97, puzzle: Exclusion 2) | 57.3 | 30.9 | – | –
7 | GAGAAAUUAUAGGAUAUCGAAAGGAUAAUUUAACGAGAAGGAUGAACAUGAGGAUCACCCAUGUGGUAUCAUGG [JL-ex6-3.11] (puzzle: Exclusion 6) | – | – | 302 | apparent KD of MS2 coat protein [2]: 346 nM; apparent KD of MS2 coat protein [3]: 157 nM
8 | GUUAGUUAAGGAUAUACAGGGAGCCGCGGCGUCUCGCCGCAACAUGAGGAUCACCCAUGUAGAAGGUAGCCAUU [JL ViennaUCT Enbibi mod 1] (puzzle: Exclusion 2) | – | – | 25.5 | –
9 | AUUUAGUCAGGAUAUUAGUAGUAAAUGAAUAAAAUUAUUACUGAGAAGGGACAUGAGGAUCACCCAUGUGUCUA [Mat - Exclusion 4 - Eli Mod - D8] (Eterna round: R97, puzzle: Exclusion 4) | 60 | 28.5 | – | –
10 | AAAUCGGAGGAGGAUAUGGUACAGGAAACGGUGCCAGAAGGUUUCACAUGAGGAUCACCCAUGUCAAAUAGCGA [EX6 #59] (Eterna round: R97, puzzle: Exclusion 6) | 21.3 | 20.3 | – | –
11 | CUGUUUUUCGCAGGAUAUGCUCCUCCAUUAUUUGCAGAAGGGCGUUGAACAUGAGGAUCACCCAUGUAUGGUAAUGACUAUUGC [JR_ExcNG1_Sub067] (Eterna round: R96, puzzle: Exclusion NG 1) | 23.5 | 22.4 | – | apparent KD of MS2 coat protein [4]: 14.7 nM
12 | AGUAGUUGUUUCCGUUCUUACAUGAGGAUCACCCAUGUUUCUUGUCGUGCUCGCGUUGCUCGUCAGACUUCCUGUUG [salish99_TOv1_r3_063] (puzzle: Sensor v3, turn-off variant 1) | – | – | 102 | apparent KD of MS2 coat protein [2]: 87.2 nM; apparent KD of MS2 coat protein [3]: 123 nM
13 | CCGCGUGAUUAGGAUAUCAAACUAGCGUGUACAUGAGAAGGGAUCACAUGAGGAUCACCCAUGUAAGGGAUCCU [Eternabot (L1) Solution 69] (Eterna round: R97, puzzle: Exclusion 6) | 93.2 | 56.1 | – | –
14 | GUGUGCUGAGGAUAUACAGAGGAAGAUAAGAUAAGAUAAUCACAUGAGGAUCACCCAUGUAGAAGGCAGAGUGU [Excluse me!! 16 - Jieux - Exclusion 2] (puzzle: Exclusion 2) | – | – | 27 | –
15 | GUCGGGCAAGGAUAUGUAGCACUCUACAUGAGGAUCACCCAUGUGAGCCUGCAUGGUGCGACAGAAGGUGCAAAAG [Enencear] (Eterna round: R97, puzzle: Exclusion 5) | 330 | 361 | – | –
16 | UUUGAAUAGGUAGGAUAUACUUUCAAUUUUCUUUUCCUUACAUGAGGAUCACCCAUGUUUACAUUGUAGAAGGACCUCAUUGAU [JR_ExcNG2_Sub048] (Eterna round: R96, puzzle: Exclusion NG 2) | – | – | – | apparent KD of MS2 coat protein [4]: 193 nM
17 | AAGAACGUGCAAGGAUAUCUCCACCAAACCGGCAGAGAAGGUGCACAUGAGGAUCACCCAUGUGACCUAAGGCUCUUAUGAGCC [Teismace] (Eterna round: R96, puzzle: Exclusion NG 1) | 46.6 | 18.5 | – | apparent KD of MS2 coat protein [4]: 14.6 nM

Row | Sequence | apparent KD of MS2 coat protein (input ligand: FMN 200 uM) [nM] | apparent KD of MS2 coat protein (input ligand: none) [nM] | apparent KD of MS2 coat protein [1] [nM] | also measured
18 | UAAGAGUGAGGAUAUGCGUCGCUGGUCCGGAUGGACGCAUGACAUGAGGAUCACCCAUGUAGAAGGCACAAAAC [Enxela Mod 5 - Jieux - Exclusion 2] (Eterna round: R97, puzzle: Exclusion 2) | 23.5 | 23.5 | – | –
19 | AAUACACAUGAGGAUCACCCAUGUCAGGAUAUGCGCAGACAGACAGACAGACAGACGAGCAGAAGGGAUAGGAA [Excls1-IV] (puzzle: Exclusion 1) | – | – | 67.5 | apparent KD of MS2 coat protein [2]: 54 nM; apparent KD of MS2 coat protein [3]: 49.3 nM
20 | CUAGUCCGAGGAUAUAUUAAGUGAUACAUGAGGAUCACCCAUGUUAUUUAAUGGAUAUUAAUAGAAGGCGGACUAG [Mat - Exclusion 5 - JL mod - D78] (puzzle: Exclusion 5) | – | – | 32.1 | apparent KD of MS2 coat protein [2]: 42.6 nM; apparent KD of MS2 coat protein [3]: 31.3 nM
21 | GUGUGCUGAGGAUAUACAUAGGAAGAGAAGAGAAGAGAAGGACAUGAGGAUCACCCAUGUAGAAGGCAGAGUGU [Excluse me!! 12 - Jieux - Exclusion 2] (puzzle: Exclusion 2) | – | – | 24.5 | –
22 | GUCACAUGGACAUAGGAUCACAUGAGGAUCACCCAUGUGACUAACAAGCUUUUUGUUCGUCUUAUGUCUAUGUGAAG [Stov1/16-B3] (Eterna round: R97, puzzle: Sensor, turn-off variant 1) | 13.1 | 16.9 | – | –
23 | AGGUGUAGAGGAUAUACUGCAAAGCACAUGAGGAUCACCCAUGUCCCUCUAUGGGAUUAUGUAGAAGGCUACACCA [Omei Ex5 C6] (Eterna round: R97, puzzle: Exclusion 5) | 17.5 | 20.2 | – | –
24 | CUGUAACGAGCGUGAGCCUACAUGAGGAUCACCCAUGUGCUCGUCUUAUAACGUACUGUCACGUUAGUGAUAGUGCG [Sensor v3, turn-off variant 1 (MOD of Eli's v1-13 v.3)] (puzzle: Sensor v3, turn-off variant 1) | – | – | 297 | apparent KD of MS2 coat protein [2]: 115 nM; apparent KD of MS2 coat protein [3]: 104 nM
25 | GGAGGAAGAGAGGAUAUGCACUCAAGGAGAAAAGCAGAAGGUUCAACAUGAGGAUCACCCAUGUAUGAUCCUCA [AK-MS2ROC-r4-exclusion6-3] (Eterna round: R97, puzzle: Exclusion 6) | 247 | 197 | – | –
26 | AUGUAGUAAGGAUAUAGAAAGAAGGAGUAAGAUAGAGAGUUCUAGAAGGUACAUGAGGAUCACCCAUGUUGGAG [JR_Exclu4_Sub081] (puzzle: Exclusion 4) | – | – | 22.2 | –
27 | UUUUUAUAUGAAGGAUAUACUUAACAUGAGGAUCACCCAUGUGGUGUUGUGAGUGAGUGAGUUUAGUAGAAGGUCAUUUCUUUU [JMF's solution 78] (Eterna round: R96, puzzle: Exclusion NG 2) | 440 | 462 | – | apparent KD of MS2 coat protein [4]: 411 nM
28 | UAUUUAAGAGGAUAUACAUGAGGAUCACCCAUGUAUAAUAAAAUACAUGAUUUUUUAUGUAGAAGGCUUGGGUA [-19.1, -18.3 kcal, 36% A] (Eterna round: R97, puzzle: Exclusion 3) | 72 | 21.1 | – | –
29 | AUUUAGAGAGGAUAUAUUAUGUGAAACAUGAGGAUCACCCAUGUAAUAUGAUGGAUGUAAAUAGAAGGCUCAUUUA [Mat - Exclusion 5 - JL mod - D23] (puzzle: Exclusion 5) | – | – | 43.5 | apparent KD of MS2 coat protein [2]: 32.9 nM; apparent KD of MS2 coat protein [3]: 56.4 nM
30 | UCGCUGCGAGGAUAUACGUUUGCGCGUUUUCGUUUGCGCGUACAUGAGGAUCACCCAUGUAGAAGGCGCGCUGC [Apr-15 SS2-10] (puzzle: Exclusion 2) | – | – | 13.3 | –
31 | CGAGUGUAAGGAUAUUCGGCGCCAGGGAACAACCUAGCGUAGAAGAAGGUACAUGAGGAUCACCCAUGUGGUUA [Riatees] (puzzle: Exclusion 4) | – | – | 151 | –
32 | AAAGAGUGAGGAUAUACAUGAGGAUCACCCAUGUACGUAAUACAAUACGGGUGACGACGUAGAAGGCAUUGCUG [Eternabot (Original) Solution 28] (Eterna round: R97, puzzle: Exclusion 3) | 198 | 781 | – | –
33 | GGUCAUCAAGUCAGGAUAUCGUCUGAUCAAUCAGGCGAGAAGGGACAUGAGGAUCACCCAUGUCGACUCAUCAG [Ex4 #7] (Eterna round: R97, puzzle: Brourd's mod of Exclusion 4) | 85.3 | 19.4 | – | –
34 | AGCUAGAUAGGAUAUGCCCGGGAUAACAUGAGGAUCACCCAUGUGGCCGAAUCAAAUCCAGCAGAAGGGUUUGGGA [Mod of ViennaUCT 12 - Jieux - Exclusion 5] (Eterna round: R97, puzzle: Exclusion 5) | 30.8 | 38.7 | – | –
